In US20200031912A1 (published 2020):
Positions count from the first letter of the chain named.

B1: ABD02 (SEQ ID NO: 4) (designed binder)
chain: GPSVFLFPPKPKDTLMISRTPEVTCVFVDYRADYLEVKFNWYVDGAEVHNAKTKPRQYDPLYGYRVVSVLTVLHQDWLNGKEYTCKVSNKALPAPIEKTISKDK
B2: ABD03 (SEQ ID NO: 5) (designed binder)
chain: B1 chain with N50H, L73S, E97Q
B3: ABD01 (SEQ ID NO: 3) (designed binder)
chain: B1 chain with A46V
B4: B11, a template CH2 domain molecule (SEQ ID NO: 12) (designed binder)
chain: B1 chain with F27V, A46V, T84K, D103A
B5: ABD04 (SEQ ID NO: 6) (designed binder)
chain: B1 chain with L15M, N50H, L73S
B6: ABD05 (SEQ ID NO: 7) (designed binder)
chain: B1 chain with N50H, L73S
B7: template (Macaque) CH2 domain molecule of SEQ ID NO: 2 (other)
chain: GPSVFLFPPKPKDTLMISRTPEVTCVVVDVSQEDPDVKFNWYVNGAEVHHAQTKPRETQYNSTYRVVSVLTVTHQDWLNGKEYTCKVSNKALPAPIQKTISKDK

Molecular target: human recombinant FcRn protein (human, UniProt P55899 24-297)
Experiment: Biacore

Chain of human recombinant FcRn protein (P55899 24-297): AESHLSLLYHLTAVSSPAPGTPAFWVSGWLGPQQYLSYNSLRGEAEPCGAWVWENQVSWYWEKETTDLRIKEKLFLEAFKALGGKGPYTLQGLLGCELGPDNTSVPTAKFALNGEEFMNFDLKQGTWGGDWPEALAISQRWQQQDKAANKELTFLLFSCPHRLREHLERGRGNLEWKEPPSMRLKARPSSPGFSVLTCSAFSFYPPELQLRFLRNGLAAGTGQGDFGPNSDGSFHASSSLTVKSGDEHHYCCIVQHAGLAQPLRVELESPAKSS

Binder | Kd [nM]
B1 | 21
B2 | 11.4
B3 | 4.18
B4 | 12
B5 | 8.9
B6 | 9.1
B7 | 13
